Publication PMC8196004
Substitutions are numbered along the chain they refer to. Names and notes keep the numbering of the source.

T1: PP2A-B55, Q7ZX64
T1 chain: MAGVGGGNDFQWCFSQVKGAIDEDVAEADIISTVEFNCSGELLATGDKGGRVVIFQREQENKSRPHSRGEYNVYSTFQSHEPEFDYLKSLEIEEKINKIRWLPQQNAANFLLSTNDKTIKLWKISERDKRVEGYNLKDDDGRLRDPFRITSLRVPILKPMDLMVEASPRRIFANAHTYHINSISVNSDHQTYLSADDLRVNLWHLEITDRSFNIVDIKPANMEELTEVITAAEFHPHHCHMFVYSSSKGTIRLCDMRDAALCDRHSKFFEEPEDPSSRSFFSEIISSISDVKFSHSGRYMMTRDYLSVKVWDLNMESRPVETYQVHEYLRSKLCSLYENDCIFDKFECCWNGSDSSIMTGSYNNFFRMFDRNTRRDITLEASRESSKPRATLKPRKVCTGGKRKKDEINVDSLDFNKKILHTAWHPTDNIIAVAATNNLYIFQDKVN

B1: 6His-Xenopus Arpp19 (isoform 1), wild type Y68A (protein)
chain: MSGENQETKAQEESSALEQKEIDDKVVSPEKSEEIKLKARYPNLGPKPGGSDFLRKRLQKGVSKKQKAFDSGDYNMAKAKMKNKQLPTAASDKTEVTGDHIPTPQDLPQRKPSLVASKLAG
B2: 6His-Xenopus Arpp19 (isoform 1), wild type D73A (protein)
chain: B1 chain with A68Y, D73A
B3: 6His-Xenopus Arpp19 (isoform 1), wild type D70A (protein)
chain: B1 chain with A68Y, D70A
B4: 6His-Xenopus Arpp19 (isoform 1), wild type G72A (protein)
chain: B1 chain with A68Y, G72A
B5: 6His-Xenopus Arpp19 (isoform 1), wild type Q66A (protein)
chain: B1 chain with Q66A, A68Y
B6: 6His-Xenopus Arpp19 (isoform 1), wild type S71T (protein)
chain: B1 chain with A68Y, S71T
B7: 6His-Xenopus Arpp19 (isoform 1), wild type F69A (protein)
chain: B1 chain with A68Y, F69A
B8: 6His-Xenopus Arpp19 (isoform 1), wild type Y74A (protein)
chain: B1 chain with A68Y, Y74A
B9: 6His-Xenopus Arpp19 (isoform 1), wild type K67A (protein)
chain: B1 chain with K67A, A68Y
B10: 6His-Xenopus Arpp19 (isoform 1), wild type G72A; S71A (protein)
chain: B1 chain with A68Y, S71A, G72A
B11: 6His-Xenopus Arpp19 (isoform 1), wild type G72A; S71T (protein)
chain: B1 chain with A68Y, S71T, G72A
B12: 6His-Xenopus Arpp19 (isoform 1), wild type T103A; P104A; D106A; L107A; P108A; Q109A (protein)
chain: B1 chain with A68Y, T103A, P104A, D106A, L107A, P108A, Q109A
B13: 6His-Xenopus Arpp19 (isoform 1), wild type T103A; P104A (protein)
chain: B1 chain with A68Y, T103A, P104A

Molecular target: T1, PP2A-B55, Q7ZX64
Assay: His pull-down, western blot quantification
Details: chain shown with the change; 20 ng His-Arpp19; panel titled Phospho-Arpp19; parent: est. 0.98; read off a plot

response [AU]	Binder
0.16	B1
0.16	B2
0.14	B3
1.4	B4
0.86	B5
0.21	B6
0.04	B7
0.09	B8
0.52	B9

Same assay, conditions: chain shown with the change; Arpp19 thio-phosphorylated at S67/S71 (ATPγS and recombinant Gwl kinase); parent: est. 1.0; read off a plot

response [AU]	Binder
0.18	B1
0.15	B2
0.04	B3
0.13	B6
0.08	B7
0.11	B8

Same assay, conditions: chain shown with the change;; parent: est. 0.83; read off a plot

response [AU]	Binder
1.2	B4
0.16	B10
0.08	B11

Same assay, conditions: chain shown with the change;; parent: est. 0.90; read off a plot

response [AU]	Binder
0.36	B12
0.57	B13
